Here are results for 14 sequences from a protein production outcome set (Wang et al. 2014).

The series in a line: label from the status in PepcDB records.

For the sequence “MPGPKKPVTPEDIIRLTFVSNPSVSPEGDKVAYLATKADEKENTYRSGIWLAEEDSYRPLTGGPYDRCPAWSPDGEIIAFSRTVNSNQRKRHYIAIVSPKGGEPQVLHESVSPATSIKWSSQGSMIGYLSRKPTGREWKPYSERDVLEIDRIPVWFDSEGWVFDRYWGLTVISYPGGEVLLEKGGVNYNIVDFDFAPDDNTIVYAVSTDMKKPFIHKLVLWDLASGREKTLIEGLTIAAVAFDPRGRYIAVKANDRKRGLFSHYKIFVYDLNSEEFVCLTCDLDLNTLNTVNSDARGPSCLRGMYWDDNGHLYYGVHNAGRMVVMKSRPLGEAEAVLDPSSATVDDFSISRGGDTIAYVKMGPTSPPDIYIYRDDNEYRLTDHNAWFAESRSLAEPVRLQVQSPLGGSIDAWILLPPDAGECSGCLPWILYIHGGPKTSYGYAFIHEFQMLASQGFAVIYSNPRGSDGYSEEFADLRGRYGVDDYSELMKVVDEALSDFPQLDPQRGGVTGGSYGGYMTNVIVTKTRRFKAAVTQRSCSNWISFYGESDIGWYFAPELISAQEPWRDLEKYVDFSPLFSVENIETPLLIIHSTEDFRCPLSGAIQLFTALKLKGVETRLLVFPGENHNLSRSGTPKRRVARLRAIASWFKEHLGSQQRG”, the protein production entry is on record as “failed”.
To “MPHDDHEHHHAADSAGAQGRLVWALILTGGFVVFEALAGWKANSLALLTDAVHNLSDVLALGLSWYAMRLTAQPAHAAKTFGYHRAGILAALANSAGLVGVALYILYDAYVRLLSPAPVQADILIGVGGAALLVNAFTAWLVHHGSHDDLNMRSAFLHLLGDVVSTLGAIAAGVAIRYTGLYWLDPAVSVLIALLILWNAKGLMAEVMDILLESTPRDVDMGSMVRDMMQVEGVHGVHHLHVWSISRQLRMLSAHIVTDDIRLSEGEGLQKRVTRLLAQRYGIAHTTLQLESESCQPDSLYCDISRPNHRYHGE” belongs “failed”; to “MPHSRPLSRLRASLILLLVSFIWGSAFVAQKTAFDAVEGATAPALGPLAFTGARFLLGALVVLPFALRENRQARSRGAPGAGLLAIFCGIGAVLFAASFTQQLGIIGTSVTNAGFLTALYVPLVPVVALVIFRQSVRKMIWPGAAGCLAGLWLLTGAATNGLSALTAGDLWVLVGALFWAFHVTVVGVMATRSGRPLTLAAAQFLTCGVLGWAGAFAFETPTLAGMAAIAPEIAYAGILSVGVAFTLQVVAQRHTHPAAAAIILSMEMVFASLAAVVVLGERLSGVQWLGAGLILASIIAVESAAALGDRRRGAAGALTP”, “failed”.
On to “MPHVRPSNAWRFLRTLWLGAWLAGWALLAQAQQLAPVPEFGARVVDQSGVLDAAQRQRLEAQLAALEQRKGAQVAVLIVPSTAPETIEQYATRAFEKWKIGRDKVDDGVLLLMASDDRALRIEVGYGLEGAIPDSAAGRIINEYIVPRLRAGDWPGAVQAGVTALERRIEGEELPPPAASGRDEGSRLAGIRGWLGENGIAALVVLLILPGPIAAALAGVGVAIYMQSISAGLAMALLVLGIKVIIKALPSGGGGGGGGGGGSGGGGFGGWRGGSRGGSGSGGFGGFRGGGGGRSGGGGASGRWLEHHHHHH”, for which the protein production result is recorded as “failed”.
With “MPIFPKPKVTVILANLGTPDVPTASAVRAFLKQFLSDQRVIEIPKLLWKIILYSFVLPFRPKRVAHAYASVWGQDSPMREILFAQTDALKRQLISHYPQLDLNIVPAMTYGNPGVQHILKDLAASPQEHVILLPLFPQYSATSTAPLYDAFANWIPKQRHLPGLTIIKDYYRHPVFIQALVSSVQRFQQQHGKPQKLLMSFHGIPQPYADKGDPYADRCRETARLVAKQLGLTPDDWAISFQSRFGKQEWVKPYTDELLTTWAANGIKSVQILSPAFSADCLETLEELEIQNAELFLEAGGTSYQYIPALNTSVEHLELLRQLLQAHLDALNYSLAYSAH”, the protein production entry is on record as “failed”.
Turning to “MPINFHDANNKYTYAQRNAHISWREMIKSITSIQNKRIVDIGCGGGIYTKELALMGAKSVVGIDFSKEILQAAKENCSGFSNISFIHGDAHSTPYPNDTFDIVISRAVIHHLQDIPTFLREASRILKKNGVLIVQDRTIEDCTIPGSPEHIRGYFFSTFPKLIETESKRRPKTTTIQQELQKYFLHVFPTQTQWEVRKIHDSVEALLQDLSPRTGRSILYELTDYELSQLLQQVQTALQNVSPIIEKDRWTIWSAMKL”, the protein production result is “failed”.
To “MPIPQATADAFCALTGDDQWIHIDPARAEAEGLAGGDTVLPGALLLSLAVGGLGKALGYPEGTRSWQRSYERVRFLRPAPVGSRLRLEARESRRRPAGTGREVVVANVSLYSDLVEAGPVMEGCFTSLLEVAVQPLEHHHHHH” belongs “failed”.
With “MPIRRRTSGNDRKNIGPRMEVARVREPFSFGVPERRRFAMQFGYDMRPSFWQEVRSNSHLVIAAVGTAALLGVAAVALWLALPTSERQAAASQEQSIPSIPVKTMKIVPAGTTVAAATVPQPARKSDQVSPTVAVAKANIQALAANDPRWTEAQPKTASAAPDQAAAPSQAANQAEPAPNKPAVTAAFAPSATDTDAASELAKVAAPAPAAGSNPDGAKTAAIPEVQPQAPEQQPTASDDGSKARAKPPKVAAAGNGRILRPVTMRSGPKKNAAAIGTVPARTSVQVMICKQWCQIVYNGKTGWVYKSYIKTGG” the entry was “failed”; with “MPISEDLKQAIRQRARYICEYCHSPERLSANRFTIDHVIPKSLGGSDAFNNLALACRRCNERRYNFVASIDPQTKTIVAIFNPRQQNWAEHFIWTNRGIIIQGTTTTGRATCIRLDLNDTRYPEEDSIQETRRFWLKTGLHPPIDDPCKNLEHHHHHH”, “not failed”; with “MPIVARSSRVPWVIKYRPKRVEDVVNQDQAKKILVPWFKAWLEGRKPDKRAALLYGPPGVGKTSLVEAIASEFNLEMIELNASDYRRRSDIERIVGAASRKRSMFKRGVVILLDEVDGINPREDAGGIEALLSVIKTTENPIVMTANDPWKDFLRPLREVSLMVEFRPLTLTHIVAVLQRICEAERIECEREALRYIAERSEGDLRSAINDLQAVAEGYGRVTLTLAREIVRGREKSIDIWRTLNQVFYKPRQAWMARKAVSQSEKDYEELIAWINDNIPRKYGEPSDLFRAFDALARATVFLGRAKFGGNWELLSYVFDLMGPGVAYARMEGEVLKTRYSYPEKIRMMAQLRGVRETREKLAEVLAKRLLMSRRAVKTEVLPILHYIFRSSRDPTKPAMIALEYGLTEKMVELLAGQRKSEILKAMATVKKARLGEKPLEPQEAKARRRGEKASRDEGRKAGKRERKGVGLDFFLGEQ”, “failed”.
To “MPKAINYKANSVVYFSGDFDERVFLLNTGSIALTSIDIETGEQVTDYIKTGEFFGVKSALGNYPREESAMVLTDSIVYSFTSKEFEAFAQTNTRIILQMIKVFSRQLRTIHKQLASLLDSEEEKNPEEGLFNVMNAFYSSQHYKAAGQVGTRYKAIYPNGKYISQVDQIVRSTAEVAGRSFGNAEGHNNDAVLAHHEKPAAVTDGTVHLAYNKAEDLFEKGEFEAAYDQYHAVIEAGAGDEITDNAYIGAGKSLHSQKEYVRCLQLLTGFISQHPKSSKIGDALMYLGMCYMDMERPDKAIAFFDKAAILSGADIIGKIRELQKECSSRLQGA” belongs “failed”.
In the case of “MPKIPITLITGFLGSGKTSFLSEYLNQTDHQGVALIINEIGQAALDQRILSVQYCGEKMLYLNAGCVCCNKRLDLVESLKATLNNYEWHGEILRRIIIETTGLANPAPILWTILSDTFLGVHFEIQSVVACVDALNAREHLTNNEAKEQIVFADSVLLTKTDLQNDSAALTKLKERIQALNPSAEIFDKRAIDYESLFSRKNRARNFMPLEHHHHHH”, the protein production result is given as “failed”.
With “MPKKAREWGALDVKRAAHPGDGANVWHAVGGVAGLLLQITPTGAKSWLLRTTVAGTRRAMGLGSYPEVGLAEARERAREAKRKIAAGVDPIEERKATRAALAAAQRRSLTFADAADKWIKAKLSDRPEKSQKAVRATLTAYSFPEIGALTVQELTPQDVVRALNTIWTAKPDTATKMRGYLEAILSWATVSGYRTGDNPARWAGNLKELLPAPSVVAKGRAGNFPAVPVARLADWWEELGQREGMGATALRFAALTAARSGEVRGALWSEVDLDAALWVVPGARMKMGREHRVPLSGPAVALLRGLPRLAGTGDLIFPGPRGGILSDMSVSAVMRRMQEDAETEAKMAGRPVSAAGWRDTRTGRPAVPHGLRSSFRDWAAEVGYDRDMAEIALAHLVGSEVERAYRRSDMLERRRAMMERWADVLAGRSGASVVEFRRA” the entry was “failed”.
With “MPKNKGKGGKNRKRGKNEADDEKRELIFKEDGQEYAQVLRMLGNGRCEAMCIDGTKRLCHIRGKMHKKVWIAAGDIVLVGLRDYQDDKADVILKYMSDEARLLKAYGELPENTRLNEGIVGDLEDDDDNNDDDYVEFEDEDIDRI” the entry was “failed”.
